Data: article PMC2676118
Where two headings read alike, the source gives them in different places.

Assays:
Assay in all cases: AUC
[1] = target: FGF9^Eks, purified recombinant FGF9 with the Eks mutation N143T (UniProt P54130)
[2] = target: FGF9^WT, purified recombinant wild type FGF9 (UniProt P54130)
[3] = target: FGF9^WT, purified recombinant wild type FGF9 (UniProt P54130); remark: listed apart in the source

Substance: FGF9^Eks, purified recombinant FGF9 with the Eks mutation N143T (from UniProt P54130 4-208) (natural protein)
- Ka [1]: 119000 M⁻¹
- stoichiometry N [1]: 2

Substance: FGF9^WT, purified recombinant wild type FGF9 (from UniProt P54130 4-208) (natural protein)
- stoichiometry N [2]: 2
- Ka [3]: 1.04e+07 M⁻¹
- stoichiometry N [3]: 2
